In the supplement of paper PMC10567573 one finds protein stability index data, which are given here for 94 variants.

To fix the notation:
B1: CCNC (parent)
chain: QSSHYLQWILDKQDLLKERQKDLK
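Also: lentivirally expressed fusions sorted by FACS into six bins by GFP to DsRed ratio, PSI derived from sequencing read proportions per bin multiplied by bin number.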

Variants of B1 are the subject of this data set. Put plainly: protein stability index of a GFP-peptide fusion (GPS, HEK-293T) (PSI 1-6); higher = more stable. The settings on record: c terminus: a fixed tail appended.
In the case of QSSHYLQWILDKQDLLKRRQKDLK [E18R], the protein stability index was 2.63. For QSSHYLQWILDKQDLLKHRQKDLK [E18H] the value was 2.54.

Consider QSSHYLQWILDKQDLLKDRQKDLK [E18D], for which the protein stability index stood at 3.08. To QSSHYLQWILDKQDLLKIRQKDLK [E18I] belongs 2.84; to QSSHYLQWILDKQDLLKMRQKDLK [E18M], 2.02.

Consider QSSHYLQWILDKQDLLKNRQKDLK [E18N], for which the protein stability index was determined as 2.53. To QSSHYLQWILDKQDLLKARQKDLK [E18A] belongs 3.67.

On to QSSHYLQWILDKQDLLKSRQKDLK [E18S], for which the protein stability index was 2.54.

Consider QSSHYLQWILDKQDLLKCRQKDLK [E18C], for which the protein stability index turned out to be 2.28.

With QSSHYLQWILDKQDLLKPRQKDLK [E18P], the protein stability index was determined as 2.56.

For QSSHYLQWILDKQDLLKQRQKDLK [E18Q], the protein stability index is 2.29. With QSSHYLQWILDKQDLLKFRQKDLK [E18F], the protein stability index came out at 2.15. For QSSHYLQWILDKQDLLKVRQKDLK [E18V] the value was 2.82; for QSSHYLQWILDKQDLLKKRQKDLK [E18K], 2.89; for QSSHYLQWILDKQDLLKYRQKDLK [E18Y], 2.2. With QSSHYLQWILDKQDLLKLRQKDLK [E18L], the protein stability index worked out at 2.33. On to QSSHYLQWILDKQDLLKWRQKDLK [E18W], for which the protein stability index was 1.8. To QSSHYLQWILDKQDLLKGRQKDLK [E18G] belongs 2.53; to QSSHYLQWILDKQDLLKTRQKDLK [E18T], 2.7. For QSSHYLQWILDKQVLLKERQKDLK [D14V] the value was 2.9.

Turning to QSSHYLQWILDKQMLLKERQKDLK [D14M], the protein stability index was 2.97. For the variant QSSHYLQWILDKQNLLKERQKDLK [D14N], the protein stability index stood at 3.39.

QSSHYLQWILDKQRLLKERQKDLK [D14R]: the protein stability index turned out to be 2.7. For QSSHYLQWILDKQQLLKERQKDLK [D14Q] the value was 3.48; for QSSHYLQWILDKQCLLKERQKDLK [D14C], 2.79; for QSSHYLQWILDKQWLLKERQKDLK [D14W], 2.73. As to QSSHYLQWILDKQFLLKERQKDLK [D14F], the protein stability index turned out to be 2.22. For QSSHYLQWILDKQLLLKERQKDLK [D14L] the value was 2.8; for QSSHYLQWILDKQPLLKERQKDLK [D14P], 3.17; for QSSHYLQWILDKQTLLKERQKDLK [D14T], 3.36. For QSSHYLQWILDKQELLKERQKDLK [D14E] the value was 4.29. To QSSHYLQWILDKQILLKERQKDLK [D14I] belongs 2.55; to QSSHYLQWILDKQSLLKERQKDLK [D14S], 2.55; to QSSHYLQWILDKQGLLKERQKDLK [D14G], 3.8.

Turning to QSSHYLQWILDKQALLKERQKDLK [D14A], the protein stability index is 2.58. For QSSHYLQWILDKQYLLKERQKDLK [D14Y] the value was 2.61.

In the case of QSSHYLQWILDKQKLLKERQKDLK [D14K], the protein stability index was 3.65. For QSSHYLQWILDKQHLLKERQKDLK [D14H] the value was 2.83. Turning to QSSHYLQWILVKQDLLKERQKDLK [D11V], the protein stability index was determined as 2.86. For QSSHYLQWILYKQDLLKERQKDLK [D11Y] the value was 3.17.

In the case of QSSHYLQWILWKQDLLKERQKDLK [D11W], the protein stability index is 2.38. To QSSHYLQWILDKQDLLKERCKDLK [Q20C] belongs 2.46. For QSSHYLQWILDKQDLLKERTKDLK [Q20T] the value was 3.2; for QSSHYLQWILDKQDLLKERNKDLK [Q20N], 3.21. On to QSSHYLQWILDKQDLLKERDKDLK [Q20D], for which the protein stability index stood at 3.01.

Take QSSHYLQWILDKQDLLKERVKDLK [Q20V]: the protein stability index is 2.69. To QSSHYLQWILDKQDLLKERWKDLK [Q20W] belongs 1.44; to QSSHYLQWILDKQDLLKERSKDLK [Q20S], 3.38; to QSSHYLQWILDKQDLLKERPKDLK [Q20P], 2.76.

As to QSSHYLQWILDKQDLLKERRKDLK [Q20R], the protein stability index stood at 3.5. Take QSSHYLQWILDKQDLLKERGKDLK [Q20G]: the protein stability index was found to be 2.98. As for QSSHYLQWILDKQDLLKERKKDLK [Q20K], the protein stability index was found to be 3.07. To QSSHYLQWILDKQDLLKERHKDLK [Q20H] belongs 3.16; to QSSHYLQWILDKQDLLKERIKDLK [Q20I], 1.66. For QSSHYLQWILDKQDLLKERAKDLK [Q20A] the value was 3.12; for QSSHYLQWILDKQDLLKERMKDLK [Q20M], 1.99.

Take QSSHYLQWILDKQDLLKERYKDLK [Q20Y]: the protein stability index was 2.38. For the variant QSSHYLQWILDKQDLLKERFKDLK [Q20F], the protein stability index came out at 2.67.

Take QSSHYLQWILDKQDLLKEREKDLK [Q20E]: the protein stability index amounted to 2.96. To QSSHYLQWILDKQDLLKERLKDLK [Q20L] belongs 2.17. Consider QSSHYLQWILDKQDLLCERQKDLK [K17C], for which the protein stability index was 2.71. For QSSHYLQWILDKQDLLGERQKDLK [K17G] the value was 2.96; for QSSHYLQWILDKQDLLAERQKDLK [K17A], 3.21; for QSSHYLQWILDKQDLLIERQKDLK [K17I], 2.09. For QSSHYLQWILDKQDLLSERQKDLK [K17S] the value was 3.66.

Turning to QSSHYLQWILDKQDLLRERQKDLK [K17R], the protein stability index came to 2.33. To QSSHYLQWILDKQDLLQERQKDLK [K17Q] belongs 4.4. To QSSHYLQWILDKQDLLVERQKDLK [K17V] belongs 2.82.

As to QSSHYLQWILDKQDLLNERQKDLK [K17N], the protein stability index was found to be 3.53. For QSSHYLQWILDKQDLLMERQKDLK [K17M] the value was 3.14. QSSHYLQWILDKQDLLPERQKDLK [K17P]: the protein stability index worked out at 3.38.

As to QSSHYLQWILDKQDLLYERQKDLK [K17Y], the protein stability index turned out to be 2.09. To QSSHYLQWILDKQDLLEERQKDLK [K17E] belongs 3.35; to QSSHYLQWILDKQDLLFERQKDLK [K17F], 2.62; to QSSHYLQWILDKQDLLDERQKDLK [K17D], 2.94. In the case of QSSHYLQWILDKQDLLWERQKDLK [K17W], the protein stability index amounted to 1.97.

With QSSHYLQWILDKQDLLTERQKDLK [K17T], the protein stability index came to 3.34. To QSSHYLQWILDKQDLLHERQKDLK [K17H] belongs 2.93; to QSSHYLQWILDKQDLLLERQKDLK [K17L], 2.68. For QSSHYLQWILDKQDLLKEIQKDLK [R19I] the value was 2.29.

Consider QSSHYLQWILDKQDLLKETQKDLK [R19T], for which the protein stability index was 3.14. In the case of QSSHYLQWILDKQDLLKEQQKDLK [R19Q], the protein stability index was 3.5.

Turning to QSSHYLQWILDKQDLLKEGQKDLK [R19G], the protein stability index was found to be 3.25.

Consider QSSHYLQWILDKQDLLKESQKDLK [R19S], for which the protein stability index worked out at 2.94. To QSSHYLQWILDKQDLLKEKQKDLK [R19K] belongs 3.27; to QSSHYLQWILDKQDLLKEHQKDLK [R19H], 3.03; to QSSHYLQWILDKQDLLKEFQKDLK [R19F], 2.14. For QSSHYLQWILDKQDLLKENQKDLK [R19N] the value was 3.72.

As to QSSHYLQWILDKQDLLKEYQKDLK [R19Y], the protein stability index came out at 2.72. For QSSHYLQWILDKQDLLKELQKDLK [R19L] the value was 2.06; for QSSHYLQWILDKQDLLKECQKDLK [R19C], 2.42. To QSSHYLQWILDKQDLLKEWQKDLK [R19W] belongs 2.64.

QSSHYLQWILDKQDLLKEEQKDLK [R19E]: the protein stability index amounted to 3.81.

Turning to QSSHYLQWILDKQDLLKEAQKDLK [R19A], the protein stability index stood at 2.75.
